According to paper PMC8653791, “TBX2 controls a proproliferative gene expression program in melanoma”:

T1: Tbx2 T-box DNA-binding domain, TBX2(94-281) (UniProt Q60707 94-281)
T1 sequence: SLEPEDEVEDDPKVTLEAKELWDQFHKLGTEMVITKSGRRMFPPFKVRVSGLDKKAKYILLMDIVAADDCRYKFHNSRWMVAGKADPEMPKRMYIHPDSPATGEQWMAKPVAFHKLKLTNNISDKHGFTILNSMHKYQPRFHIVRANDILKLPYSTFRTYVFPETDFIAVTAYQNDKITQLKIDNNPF


Target: T1, Tbx2 T-box DNA-binding domain, …
Test: fluorescence anisotropy; 50 mM HEPES/NaOH pH 7.3, 200 mM NaCl, 25 C, 10 min, 3.33 nM dsDNA probe
Conditions: protein: recombinant, tags: N-terminal His tag removed by 3C protease (pETM14, NcoI/XhoI), blunt

Binder	Kd (label: fluorescein on S14 (printed at the 3' end), complement unlabeled) [nM]	Kd (label: fluorescein (printed at the 3' end), self-complementary palindrome, 2 copies) [nM]
E-box probe (dsDNA) DNA 1: GAGACCACGTGTTGAC DNA 2: GTCAACACGTGGTCTC	~86	–
T-element (T-box) probe (dsDNA) DNA 1: AATTTCACACCTAGGTGTGAAATT DNA 2: AATTTCACACCTAGGTGTGAAATT	–	~602
